Experimental data from the supplement of paper PMC9732359.
± gives the uncertainty stated by the source.

Experiment: protein stability index of a GFP-peptide fusion (yeast GPS) (PSI 1-4); higher = more stable; sorted into four equal gates, so the index is relative within each strain
How it was run: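 Each library plasmid carries Cherry plus GFP with a tiled 17-residue yeast protein peptide fused downstream, and the pooled library was carried in yeast. Mid-log cultures in leucine-free medium were sorted into four equal gates by GFP/Cherry ratio. Reads from Illumina sequencing of PCR-amplified plasmids from each gate were assigned to strains by barcodes. Per peptide, the protein stability index was computed as the summed products of gate read frequency and gate number.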

Row | Sequence | protein stability index (doa10∆) | protein stability index (pdr5∆) | protein stability index (san1∆) | protein stability index (ubr1∆)
1 | GITGNLDRIPMHSYFIF [COB] | 2.13 ± 0.12 | 2.19 ± 0.085 | 2.39 ± 0.072 | 2.43 ± 0.12
2 | IVHSSDGHLQFLNDVIP [DLS1] | 2.99 ± 0.082 | 2.75 ± 0.077 | 2.6 ± 0.16 | 2.51 ± 0.088
3 | WQVIITDDQGRVIDDNN [SIR3] | 3.49 ± 0.11 | 3.43 ± 0.1 | 3.31 ± 0.08 | 3.52 ± 0.073
4 | VSIRQNQYKLVFYQVTP [RPL22B] | 1.95 ± 0.087 | 1.69 ± 0.051 | 2.15 ± 0.06 | 1.88 ± 0.064
5 | QPIFVAHTAGRYANKRF [RPS5] | 1.55 ± 0.076 | 2.03 ± 0.072 | 1.61 ± 0.12 | 1.78 ± 0.069
6 | TPKYRLVVRFTNKDIIC [RPL5] | 1.75 ± 0.078 | 1.64 ± 0.11 | 1.17 ± 0.2 | 1.36 ± 0.071
7 | THAVGNNCEDFVSRPDR [FAS1] | 3.16 ± 0.12 | 3.08 ± 0.18 | 2.97 ± 0.072 | 3.04 ± 0.087
8 | KTSSGSYNYVENGIEVE [ITC1] | 3.31 ± 0.18 | 3.2 ± 0.2 | 2.95 ± 0.12 | 3.31 ± 0.17
9 | KEPKKLLPNSKNVENTK [DSN1] | 3.12 ± 0.17 | 2.74 ± 0.15 | 2.59 ± 0.14 | 3.21 ± 0.083
10 | VLRPFLLRRLKKDVEKE [SNF2] | 2.8 ± 0.13 | 3.16 ± 0.19 | – | 3.11 ± 0.12
11 | SKSGRIFALVFSSNERY [RPN13] | 2.45 ± 0.1 | 2.74 ± 0.086 | 2.28 ± 0.11 | 2.62 ± 0.049
12 | IIKANQLILSDVDPEFY [RET1] | 1.51 ± 0.094 | 1.76 ± 0.081 | 1.6 ± 0.11 | 1.96 ± 0.081
13 | PIQSKVFHAAFEGDSNM [BRR2] | 2.91 ± 0.055 | 3.02 ± 0.051 | 2.92 ± 0.063 | 2.9 ± 0.032
14 | QKESDAKNETNSESDSK [ITC1] | 2.94 ± 0.044 | 3.03 ± 0.046 | 3.02 ± 0.045 | 2.85 ± 0.043
15 | NFLRLPASNILRRTTQR [YDL116W/NUP84] | 3.08 ± 0.27 | – | 3.25 ± 0.13 | –
16 | VTRFTTWNGSPFDNSTE [YJL039C/NUP192] | 2.44 ± 0.079 | 2.17 ± 0.052 | 2.3 ± 0.099 | 2.41 ± 0.067
17 | NQLDGFDDRGDVKVIMA [RPT2] | 3.47 ± 0.17 | 3.44 ± 0.27 | 3.09 ± 0.1 | 3.52 ± 0.17
18 | AVLNVSPVYDVDPRIIN [NUT1] | 2.2 ± 0.078 | 2.29 ± 0.064 | 1.82 ± 0.091 | 2.17 ± 0.06
19 | HLLVKQGDGLLTKLQKY [RPN7] | 2.97 ± 0.13 | 2.44 ± 0.1 | 3.19 ± 0.12 | 3 ± 0.16
20 | PDTAIDSQMDEASGTPD [GRR1] | 2.97 ± 0.062 | 3.06 ± 0.071 | 2.89 ± 0.064 | 3 ± 0.055
21 | APAYAWSHNGPFETFDH [CYT1] | 2.19 ± 0.098 | 2.64 ± 0.099 | 1.75 ± 0.16 | 2.78 ± 0.1
22 | GDIKPEFSPRLHNIWSN [YML103C/NUP188] | 3.22 ± 0.14 | 2.98 ± 0.091 | 3.32 ± 0.11 | 3.51 ± 0.11
23 | LLAHKVADEEANIELTW [RPC37] | 1.49 ± 0.074 | – | 1.59 ± 0.14 | 1.74 ± 0.1
24 | LEGKGSLEEIIAEGQKK [RPP2B] | 2.5 ± 0.12 | 2.17 ± 0.072 | 3.1 ± 0.076 | 2.72 ± 0.046
25 | GYALRDVQARRQFVSNV [RPP1] | – | 1.99 ± 0.16 | – | –
26 | ALAYAGTGNNSAVKRLL [RPN2] | 2.68 ± 0.1 | 2.71 ± 0.1 | 2.28 ± 0.14 | 3.26 ± 0.1
27 | PQRCTFAFEAIDPRHLA [POP1] | 2.55 ± 0.095 | 3.01 ± 0.077 | 2.73 ± 0.087 | 3.1 ± 0.051

Row | Sequence | protein stability index (doa10∆) | protein stability index (pdr5∆) | protein stability index (san1∆) | protein stability index (ubr1∆)
28 | LDIEKEAPAGNIDTITD [MCD1] | 2.84 ± 0.081 | 3.03 ± 0.066 | 3.07 ± 0.086 | 3.08 ± 0.052
29 | ANLVNKESDLLEETRTT [BRN1] | 3.06 ± 0.18 | 3.51 ± 0.17 | 3.31 ± 0.098 | 3.26 ± 0.077
30 | SSLIPHCITSITLALAD [MTR3] | 1.28 ± 0.055 | 1.32 ± 0.069 | 1.27 ± 0.17 | 1.3 ± 0.083
31 | KVDIPLEVVQYIEDGRN [NUT2] | 2.46 ± 0.066 | 1.59 ± 0.065 | 1.34 ± 0.094 | 1.59 ± 0.046
32 | SIKSQKEEISDQKPIEH [SWI3] | 2.88 ± 0.059 | 2.98 ± 0.055 | 2.84 ± 0.048 | 2.96 ± 0.045
33 | VTDDDRLWLKKVMEEEE [POP8] | 1.43 ± 0.066 | 1.89 ± 0.07 | 1.57 ± 0.089 | 2.07 ± 0.07
34 | YITNADDSTKFQLVNDV [SIR3] | 3.01 ± 0.11 | 3.18 ± 0.1 | 2.94 ± 0.092 | 3.24 ± 0.071
35 | FTQLKKNIPKTRYNRDY [SNU114] | 2.48 ± 0.052 | 2.59 ± 0.056 | 2.98 ± 0.04 | 2.79 ± 0.051
36 | PVEKVQRIAKNDPEYMD [DLS1] | 2.75 ± 0.27 | 3.29 ± 0.14 | 3.17 ± 0.12 | 3.31 ± 0.087
37 | NLKFLKNKDSLVSNPHE [SRB4] | 2.68 ± 0.06 | 2.51 ± 0.076 | 2.49 ± 0.05 | 2.84 ± 0.049
38 | ARAVQDNGESAFRTLRL [RPL13A] | 3 ± 0.13 | 2.88 ± 0.1 | 1.57 ± 0.098 | 2.87 ± 0.096
39 | TSVTRRSPVFALNMLPS [GRR1] | 1.45 ± 0.038 | 1.61 ± 0.037 | 1.51 ± 0.061 | 1.73 ± 0.033
40 | LHLDYNFNLKPTKTLTT [PRP8] | 2.45 ± 0.034 | 2.7 ± 0.037 | 2.68 ± 0.039 | 2.5 ± 0.03
41 | MDCTKEEEATMTTSAVS [YIL149C/MLP2] | 3.35 ± 0.08 | 3.24 ± 0.065 | 3.28 ± 0.06 | 3.12 ± 0.059
42 | LLFPKSTIVNLAREVPQ [DPB4] | 1.77 ± 0.14 | 2.24 ± 0.25 | 1.72 ± 0.18 | 1.94 ± 0.14
43 | FVTRKSRKRAKKMTKKA [PRP8] | 3.02 ± 0.075 | 2.91 ± 0.12 | 2.61 ± 0.11 | 2.95 ± 0.12
44 | FIRDELDENKWYKFNDD [UBP6] | 1.86 ± 0.063 | 2.15 ± 0.043 | 1.94 ± 0.096 | 1.97 ± 0.062
45 | LFVGTDRQLHEISTSKK [RPN14] | 2.91 ± 0.07 | 2.91 ± 0.076 | 2.9 ± 0.092 | 2.7 ± 0.092
46 | TSDGALSVMCGCGTVKR [RPR2] | 2.43 ± 0.13 | 2.67 ± 0.1 | 1.93 ± 0.14 | 1.78 ± 0.13
47 | GSIAMARVLFDDMVEYE [CYT1] | 3.51 ± 0.18 | 3.33 ± 0.12 | 3.04 ± 0.1 | 3.35 ± 0.097
48 | ILHTKESSNEAKKTIQN [SIR4] | 2.74 ± 0.056 | 2.21 ± 0.058 | 2.73 ± 0.069 | 2.73 ± 0.054
49 | PDTKISSAAILGLGIAF [RPN1] | 2.28 ± 0.043 | 2.3 ± 0.058 | 2.49 ± 0.087 | 2.06 ± 0.051
50 | YLKAFDKNKLLLLAAQI [SSN2] | 1.32 ± 0.061 | 1.37 ± 0.052 | 1.36 ± 0.085 | 1.42 ± 0.045
51 | QLPANMVHLYSIVEECD [RPC17] | 1.99 ± 0.044 | 1.98 ± 0.045 | 1.86 ± 0.065 | 2.02 ± 0.04
52 | RIGRIEDVTPVPSDSTR [RPS14A] | 2.85 ± 0.082 | 3.15 ± 0.065 | 3.26 ± 0.053 | 3.16 ± 0.052
53 | EINWRHASFLCSFITQD [FAS1] | 2.1 ± 0.15 | 2.42 ± 0.12 | 2.17 ± 0.21 | 2.14 ± 0.15
